# Source: paper PMC8464517
# T1: GLUT1 (Homo sapiens), P11166
# T1 chain: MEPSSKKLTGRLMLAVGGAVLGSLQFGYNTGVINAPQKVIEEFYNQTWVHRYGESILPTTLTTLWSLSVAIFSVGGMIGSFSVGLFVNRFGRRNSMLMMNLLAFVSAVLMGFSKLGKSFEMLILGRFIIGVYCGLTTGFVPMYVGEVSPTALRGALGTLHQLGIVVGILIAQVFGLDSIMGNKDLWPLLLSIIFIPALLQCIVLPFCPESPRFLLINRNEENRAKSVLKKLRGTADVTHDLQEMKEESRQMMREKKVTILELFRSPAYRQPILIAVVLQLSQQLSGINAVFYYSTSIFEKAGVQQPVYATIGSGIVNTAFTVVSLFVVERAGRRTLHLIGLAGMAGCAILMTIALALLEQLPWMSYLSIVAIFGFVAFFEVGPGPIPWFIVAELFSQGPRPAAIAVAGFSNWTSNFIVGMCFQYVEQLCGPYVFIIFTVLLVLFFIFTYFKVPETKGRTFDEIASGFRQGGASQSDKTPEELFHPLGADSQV
# Molecular target: T1, GLUT1 (Homo sapiens), P11166
# Assay: ITC
# Settings: PIP2/MSP1E3 nanodisc; remark: other sources report otherwise
binder,measurement,value
"TXNIP, Q9H3M7 (protein) MVMFKKIKSFEVVFNDPEKVYGSGEKVAGRVIVEVCEVTRVKAVRILACGVAKVLWMQGSQQCKQTSEYLRYEDTLLLEDQPTGENEMVIMRPGNKYEYKFGFELPQGPLGTSFKGKYGCVDYWVKAFLDRPSQPTQETKKNFEVVDLVDVNTPDLMAPVSAKKEKKVSCMFIPDGRVSVSARIDRKGFCEGDEISIHADFENTCSRIVVPKAAIVARHTYLANGQTKVLTQKLSSVRGNHIISGTCASWRGKSLRVQKIRPSILGCNILRVEYSLLIYVSVPGSKKVILDLPLVIGSRSGLSSRTSSMASRTSSEMSWVDLNIPDTPEAPPCYMDVIPEDHRLESPTTPLLDDMDGSQDSPIFMYAPEFKFMPPPTYTEVDPCILNNNVQ",Kd,3.8 µM
